Laboratory results as given in patent publication US20260028608A1.
Where two headings read alike, the source gives them in different places.

What was measured:
Assay in all cases: cell-based or functional assay
[1] = target: Humira (Abbvie), human IgG1
[2] = target: human IgG3 from Sigma (15654 Lot #SLBW0899) (human)
[3] = target: XGEVA (Amgen), human IgG2
[4] = target: human IgG4 from Abcam (ab90286 Lot #GR3180469) (human)
[5] = target: Humira (Abbvie), human IgG1; remark: listed apart in the source
[6] = target: XGEVA (Amgen), human IgG2; remark: listed apart in the source

IdeS (Immunoglobulin G-degrading enzyme of S. pyogenes), control polypeptide pCART124
Approximate EC50 value, i.e. equal amounts of scIgG and F(ab')2 (SDS-PAGE) [1]: 0.12 µg/mL | Conc. of enzyme for cleavage of 1st IgG1 heavy chain, IgG to scIgG (SDS-PAGE) [1]: 4.5 ng/mL | Conc. of enzyme for cleavage of 2nd IgG1 heavy chain, scIgG to F(ab')2 (SDS-PAGE) [1]: 400 ng/mL | IgG1 EC50 F(ab')2 (SDS-PAGE, visual estimate) [1]: 0.08 µg/mL | IgG1 EC50 scIgG (SDS-PAGE, visual estimate) [1]: 0.001 µg/mL | fold of EC50 F(ab')2 for IgG1, IdeS against N240 [1]: 5 fold | IgG3 EC50 F(ab')2 (SDS-PAGE, visual estimate) [2]: 0.015 µg/mL | IgG3 EC50 scIgG (SDS-PAGE, visual estimate) [2]: 0.0022 µg/mL | Conc. of enzyme for cleavage of 1st IgG2 heavy chain, IgG to scIgG (SDS-PAGE) [3]: 40 ng/mL | Conc. of enzyme for cleavage of 2nd IgG2 heavy chain, scIgG to F(ab)2 (SDS-PAGE) [3]: 1100 ng/mL | IgG2 EC50 F(ab')2 (SDS-PAGE, visual estimate) [3]: 0.12 µg/mL | IgG2 EC50 scIgG (SDS-PAGE, visual estimate) [3]: 0.003 µg/mL | IgG4 EC50 F(ab')2 (SDS-PAGE, visual estimate) [4]: 0.18 µg/mL | IgG4 EC50 scIgG (SDS-PAGE, visual estimate) [4]: 0.002 µg/mL | Conc. of enzyme for cleavage of 1st IgG1 heavy chain, IgG to scIgG (SDS-PAGE) [5]: 1.5 ng/mL | Conc. of enzyme for cleavage of 2nd IgG1 heavy chain, scIgG to F(ab')2 (SDS-PAGE) [5]: 120 ng/mL | Conc. of enzyme for cleavage of 1st IgG2 heavy chain, IgG to scIgG (SDS-PAGE) [6]: 10 ng/mL | Conc. of enzyme for cleavage of 2nd IgG2 heavy chain, scIgG to F(ab)2 (SDS-PAGE) [6]: 400 ng/mL
